# Measured values from PMC12428694, “A New β-Galactosidase from Pseudomonas tritici SWRI145 for Efficient Bioproduction of Galactooligosaccharides” (Foods, 2025).
# System: O=[N+]([O-])c1ccccc1O[C@@H]1O[C@H](CO)[C@H](O)[C@H](O)[C@H]1O
# Experiment: purified protein
# Format: biochemical, Pseudomonas tritici
# Conditions: 50 mM HEPES pH 7.5, 50 °C, 5 min, 0.3-60 mM ONPG, 1 mM Mg2+ probably present
substance,measurement,value
Pstr β-galactosidase (Pseudomonas tritici),Km,3000 µM
same,kcat,643.98 s⁻¹
